From publication PMC9643335 come the findings set out here.

This experiment has as its target Trypanosoma brucei ADAT3 (Trypanosoma brucei). The experiment is described as follows: cryo-EM structure; TbADAT2/3 heterodimer co-expressed in Hi5 cells, purified via the His tag on TbADAT3 (1 M KCl wash), tag cleaved, SEC; mixed with in vitro transcribed TbtRNA-Thr(CGU) in 20 mM Hepes pH 7.5, 50 mM NaCl, 2 mM MgCl2, 0.5 mM TCEP, SEC, vitrified.

In general, stoichiometry N refers to the number of molecules, sites or subunits per partner or assembly. For the substance “Trypanosoma brucei ADAT2 (A87G/C117S) (enzyme)”, the stoichiometry N stood at 1.
